Experiment [1] deals with αN-catenin actin-binding domain with the helix-1 mutation (αNcat-ABD-H1) (mouse) (UniProt Q61301). In words: crystal structure; αNcat-ABD-H1 crystals in forms A (2.2 Å) and B (2.8 Å), grown at 277 K by vapor diffusion; molecular replacement with PDB 4K1O.
Experiment [2] has as its target αE-catenin actin-binding domain, wild type (αEcat-ABD-WT) (mouse) (UniProt P26231). The experiment can be described thus: SEC-MALS; elution profiles at 3 mg/ml to 30 mg/ml; MALS of the dimer peak at 30 mg/ml; dimer to monomers; Superdex-200 Increase 10/300 GL; 20 mM Tris-HCl pH 7.0, 100 mM NaCl. For orientation: SEC sorts molecules by how far they enter the pores of the column.

Results on 2 substances are retold here after paper PMC6269467.

The stoichiometry N is the number of molecules, sites or subunits per partner or assembly. For “αN-catenin actin-binding domain with the helix-1 mutation (αNcat-ABD-H1) (from UniProt Q61301-2 651-905) (domain or fragment)”, the stoichiometry N in experiment [1] is 2.

In turn, “αE-catenin actin-binding domain, wild type (αEcat-ABD-WT) (from UniProt P26231 652-906) (domain or fragment)” displayed a stoichiometry N in experiment [2] of 2.
